Test [1] has as its target T1, human TMEM129 (E3 ligase), endogenous in HeLa cells (human, UniProt A0AVI4 1-362).
T1 construct: whole, on cells; Endogenous protein in HeLa lysates; also called E3 ligase TMEM129
T1 sequence (looked up): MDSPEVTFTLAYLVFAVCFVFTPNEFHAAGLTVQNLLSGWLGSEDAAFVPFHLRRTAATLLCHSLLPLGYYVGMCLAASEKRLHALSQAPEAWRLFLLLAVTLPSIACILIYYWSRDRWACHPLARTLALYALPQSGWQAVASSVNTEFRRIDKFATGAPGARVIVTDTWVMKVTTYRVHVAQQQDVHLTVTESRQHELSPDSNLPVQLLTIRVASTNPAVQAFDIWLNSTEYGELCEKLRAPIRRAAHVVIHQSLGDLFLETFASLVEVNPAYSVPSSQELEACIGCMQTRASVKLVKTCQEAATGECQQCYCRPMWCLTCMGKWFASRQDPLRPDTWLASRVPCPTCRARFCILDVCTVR
The test is described as follows: immunoprecipitation with anti-TMEM129 from HeLa^FcRn cells transfected with Derlin-1.

For test [2], the target named is T2, FLAG-tagged human FcRn heavy chain (pcDNA-FLAGFcRn), expressed in HeLa^FcRn cells (human, UniProt P55899 24-365).
T2 construct: whole, on cells; it pairs with endogenous β2m in the cells; also called FcRn HC; WT FcRn
T2 sequence (P55899 other isoform, or with tags, fused parts or gaps): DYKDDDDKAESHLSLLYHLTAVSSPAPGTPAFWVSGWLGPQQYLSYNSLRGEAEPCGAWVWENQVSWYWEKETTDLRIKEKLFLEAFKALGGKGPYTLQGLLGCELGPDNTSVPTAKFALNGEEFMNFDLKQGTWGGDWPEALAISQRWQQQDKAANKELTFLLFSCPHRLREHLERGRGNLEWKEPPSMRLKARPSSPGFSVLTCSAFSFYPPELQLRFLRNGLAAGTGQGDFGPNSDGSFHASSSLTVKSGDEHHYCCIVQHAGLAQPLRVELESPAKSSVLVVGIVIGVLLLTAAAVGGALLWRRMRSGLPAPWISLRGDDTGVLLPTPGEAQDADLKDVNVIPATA
The test can be described thus: probing for interactions in HeLa^FcRn cells transfected with HA-tagged HCMV cDNAs.

The target in test [3] is T3, HA-tagged HCMV US11 (pEF6-US11, gene synthesised from HCMV AD169 DNA), expressed in HeLa cells (human cytomegalovirus (AD169 DNA as …, UniProt P09727 18-215)).
T3 construct: Full-length membrane glycoprotein expressed in transfected HeLa cells and tested in CHAPS lysates; also called HCMV glycoprotein US11; wild-type US11
The test is described as follows: immunoprecipitation of US11 from HeLa^US11 cells, blot for Derlin-1.

In test [4] the target is T3, HA-tagged HCMV US11 (pEF6-US11, gene …). The test can be described thus: reciprocal co-immunoprecipitation (anti-HA, anti-FLAG) from HeLa^HFE+US11 lysates.
Test [5] has as its target T2, FLAG-tagged human FcRn heavy chain …. The test is described as follows: reciprocal co-immunoprecipitation (anti-HA for US2, anti-FLAG for FcRn) from HeLa^FcRn+US2 lysates.

B1: Myc-tagged human Derlin-1 (pSectag2-Derlin-1) (other)
chain: SDIGDWFRSIPAITRYWFAATVAVPLVGKLGLISPAYLFLWPEAFLYRFQIWRPITATFYFPVGPGTGFLYLVNLYFLYQYSTRLETGAFDGRPADYLFMLLFNWICIVITGLAMDMQLLMIPLIMSVLYVWAQLNRDMIVSFWFGTRFKACYLPWVILGFNYIIGGSVINELIGNLVGHLYFFLMFRYPMDLGGRNFLSTPQFLYRWLPSRRGGVSGFGVPPASMRRAADQNGGGGRHNWGQGFRLGDQEQKLISEEDL
notes: whole, on cells; Transiently expressed in HeLa transfectants; tested in lysates; also called myc-tagged Derlin-1; Derlin-1 (WT)
On to B1, for which the binding result in test [1] is given as “binds”.

B2: HA-tagged HCMV UL16, expressed in HeLa^FcRn cells (other)
chain: VDLGSKSSNSTCRLNVTELASIHPGETWTLHGMCISICYYENVTEDEIIGVAFTWQHNESVVDLWLYQNDTVIRNFSDITTNILQDGLKMRTVPVTKLYTSRMVTNLTVGRYDCLRCENGTTKIIERLYVRLGSLYPRPPGSGLAKHPSVSADEELSATLARDIVLVSAITLFFFLLALRIPQRLCQRLRIRLPHRYQRLRTED
notes: whole, on cells
Turning to B2, the binding result in test [2] is “binds”.

B3: Derlin-1 in HeLa^US11 or HeLa^US11Q192L stable cells (FIG. 16A; no transfection of Derlin-1 stated) (other)
chain: SDIGDWFRSIPAITRYWFAATVAVPLVGKLGLISPAYLFLWPEAFLYRFQIWRPITATFYFPVGPGTGFLYLVNLYFLYQYSTRLETGAFDGRPADYLFMLLFNWICIVITGLAMDMQLLMIPLIMSVLYVWAQLNRDMIVSFWFGTRFKACYLPWVILGFNYIIGGSVINELIGNLVGHLYFFLMFRYPMDLGGRNFLSTPQFLYRWLPSRRGGVSGFGVPPASMRRAADQNGGGGRHNWGQGFRLGDQ
notes: whole, on cells
With B3, in test [3], the binding result was “binds”.

B4: FLAG-tagged human HFE (hemochromatosis protein), expressed in HeLa^HFE cells (other)
chain: DYKDDDDKRLLRSHSLHYLFMGASEQDLGLSLFEALGYVDDQLFVFYDHESRRVEPRTPWVSSRISSQMWLQLSQSLKGWDHMFTVDFWTIMENHNHSKESHTLQVILGCEMQEDNSTEGYWKYGYDGQDHLEFCPDTLDWRAAEPRAWPTKLEWERHKIRARQNRAYLERDCPAQLQQLLELGRGVLDQQVPPLVKVTHHVTSSVTTLRCRALNYYPQNITMKWLKDKQPMDAKEFEPKDVLPNGDGTYQGWITLAVPPGEEQRYTCQVEHPGLDQPLIVIWEPSPSGTLVIGVISGIAVFVVILFIGILFIILRKRQGSRGAMGHYVLAERE
notes: whole, on cells; Specificity control with an MHC class I-like structure; also called HEF; HeLa^HFE+US11
In the case of B4, in test [4], the binding result is reported as “no binding”.

B5: HA-tagged HCMV US6, expressed in HeLa^FcRn cells (other)
chain: ERSSRDPKTLLSLSPRQQACVPRTKSHRPVCYNDTGDCTDADDSWKQLGEDFAHQCLQAAKKRPKTHKSRPNDRNLEGRLTCQRVRRLLPCDLDIHPSHRLLTLMNNCVCDGAVWNAFRLIERHGFFAVTLYLCCGITLLVVILALLCSITYESTGRGIRRCGS
notes: whole, on cells
Turning to B5, in test [2], the binding result is recorded as “binds”.

B6: HA-tagged HCMV US2 (pEF6-US2), expressed in HeLa cells (other)
chain: MNNLWKAWVGLWTSMGPLIRLPDGITKAGEDALRPWKSTAKHPWFQIEDNRCYIDNGKLFARGSIVGNMSRFVFDPKADYGGVGENLYVHADDVEFVPGESLKWNVRNLDVMPIFETLALRLVLQGDVIWLRCVPELRVDYTSSAYMWNMQYGMVRKSYTHVAWTIVFYSINITLLVLFIVYVTVDCNLSMMWMRFFVCYPYDVPDYA
notes: whole, on cells; also called HeLa^US2; HeLa^FcRn+US2
As for B6, the binding result in test [5] is on record as “no binding”.

For the origin of these results see patent US20230181723A1 (UNIVERSITY OF MARYLAND COLLEGE PARK, published 2023).
